The target in one assay is T1, HA-ADAM22 (UniProt Q9P0K1 223-906).
T1 construct: ADAM22 (A Disintegrin And Metalloprotease domain 22) receptor, cDNA; In the HEK293T lysates it is present in both immature (110 kDa) and mature (90 kDa) forms; also called HA-tagged ADAM22; HA-fused ADAM22; source: COS7, co-transfected, on cells (immunofluorescence); HEK293T, co-transfected, in lysate (co-IP)
T1 sequence (looked up): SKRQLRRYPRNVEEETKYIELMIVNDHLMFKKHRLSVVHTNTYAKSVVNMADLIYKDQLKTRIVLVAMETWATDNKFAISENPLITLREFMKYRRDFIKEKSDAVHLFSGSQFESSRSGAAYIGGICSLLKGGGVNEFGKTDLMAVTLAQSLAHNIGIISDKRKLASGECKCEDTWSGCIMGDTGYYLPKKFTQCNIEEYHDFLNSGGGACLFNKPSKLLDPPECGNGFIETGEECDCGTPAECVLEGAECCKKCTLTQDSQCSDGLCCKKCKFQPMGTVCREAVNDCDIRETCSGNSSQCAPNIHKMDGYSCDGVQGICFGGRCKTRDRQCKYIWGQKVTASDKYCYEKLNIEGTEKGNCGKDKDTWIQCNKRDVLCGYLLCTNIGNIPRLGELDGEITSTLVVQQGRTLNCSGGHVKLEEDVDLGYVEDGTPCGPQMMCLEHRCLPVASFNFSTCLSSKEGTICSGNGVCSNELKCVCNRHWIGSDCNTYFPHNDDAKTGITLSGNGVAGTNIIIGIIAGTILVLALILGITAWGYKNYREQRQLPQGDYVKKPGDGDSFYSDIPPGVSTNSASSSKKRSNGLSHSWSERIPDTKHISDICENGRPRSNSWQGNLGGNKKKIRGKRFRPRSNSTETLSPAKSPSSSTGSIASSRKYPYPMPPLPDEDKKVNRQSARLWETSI
Put plainly: immunostaining of cells or tissue; COS7 cells co-transfected with LGI1-Flag (wild type or mutant) and HA-ADAM22 or HA-ADAM23; 36 h after transfection fixed, LGI1 stained with anti-Flag before permeabilisation, ADAM with anti-HA after it; percentage of co-immunostained cells with both signals on the cell surface counted; three independent experiments. As to conditions: partners not purified.

The target in another assay is T2, HA-ADAM23 (UniProt O75077 287-832).
T2 construct: ADAM23 (A Disintegrin And Metalloprotease domain 23) receptor, cDNA; Expression of HA-ADAM23 in HEK293T was lower than that of HA-ADAM22; also called HA-tagged ADAM23; HA-fused ADAM23; source: COS7, co-transfected, on cells (immunofluorescence); HEK293T, co-transfected, in lysate (co-IP)
T2 sequence (looked up): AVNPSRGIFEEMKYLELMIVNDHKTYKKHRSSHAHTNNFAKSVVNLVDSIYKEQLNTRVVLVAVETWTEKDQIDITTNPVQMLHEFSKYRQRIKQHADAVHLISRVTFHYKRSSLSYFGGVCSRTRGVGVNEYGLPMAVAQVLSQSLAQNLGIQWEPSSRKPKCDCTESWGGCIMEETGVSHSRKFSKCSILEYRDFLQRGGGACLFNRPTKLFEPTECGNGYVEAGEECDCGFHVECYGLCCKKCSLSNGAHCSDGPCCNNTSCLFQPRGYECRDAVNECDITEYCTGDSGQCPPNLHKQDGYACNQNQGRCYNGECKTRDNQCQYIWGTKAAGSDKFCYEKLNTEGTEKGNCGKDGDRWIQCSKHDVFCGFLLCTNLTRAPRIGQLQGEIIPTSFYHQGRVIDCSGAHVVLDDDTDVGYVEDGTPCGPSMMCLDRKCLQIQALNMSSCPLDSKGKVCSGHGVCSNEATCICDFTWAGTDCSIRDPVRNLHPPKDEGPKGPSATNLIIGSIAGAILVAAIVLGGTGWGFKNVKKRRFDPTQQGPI
The description is as above. As to conditions: partners not purified.

Residue numbers refer to the chain shown, from its start. Names and notes keep the numbering of the source.

Experimental findings from paper PMC5070869, “Secretion-Positive LGI1 Mutations Linked to Lateral Temporal Epilepsy Impair Binding to ADAM22 and ADAM23 Receptors” (PLoS Genetics, 2016) are described below.

B1: wild type LGI1-Flag (leucine-rich, glioma-inactivated 1) (ligand, human, UniProt O95970 35-557, looked up)
chain: KKPAKPKCPAVCTCTKDNALCENARSIPRTVPPDVISLSFVRSGFTEISEGSFLFTPSLQLLLFTSNSFDVISDDAFIGLPHLEYLFIENNNIKSISRHTFRGLKSLIHLSLANNNLQTLPKDIFKGLDSLTNVDLRGNSFNCDCKLKWLVEWLGHTNATVEDIYCEGPPEYKKRKINSLSSKDFDCIITEFAKSQDLPYQSLSIDTFSYLNDEYVVIAQPFTGKCIFLEWDHVEKTFRNYDNITGTSTVVCKPIVIETQLYVIVAQLFGGSHIYKRDSFANKFIKIQDIEILKIRKPNDIETFKIENNWYFVVADSSKAGFTTIYKWNGNGFYSHQSLHAWYRDTDVEYLEIVRTPQTLRTPHLILSSSSQRPVIYQWNKATQLFTNQTDIPNMEDVYAVKHFSVKGDVYICLTRFIGDSKVMKWGGSSFQDIQRMPSRGSMVFQPLQINNYQYAILGSDYSFTQVYNWDAEKAKFVKFQELNVQAPRSFTHVSINKRNFLFASSFKGNTQIYKHVIVDLSA
notes: the protein has a signal peptide and is secreted; also called LGI1 wild type; WT; source: COS7, co-transfected with HA-ADAM22 or HA-ADAM23 (immunofluorescence); HEK293T, co-transfected, in lysate (co-IP)
Regarding B1, the figures for the “percent of cells with membrane-bound LGI1” value with HA-ADAM22 and in the assay with HA-ADAM23 were 76% and 88%, respectively.

B2: LGI1-R407C (Flag-tagged) (ligand, human, UniProt O95970 35-557, looked up)
chain: B1 chain with R373C
notes: LGI1 with the ADLTE-causing substitution R407C (c.1219C>T); secreted protein; also called c.1219C>T; source: COS7, co-transfected with HA-ADAM22 or HA-ADAM23 (immunofluorescence); HEK293T, co-transfected, in lysate (co-IP)
Take B2: the “percent of cells with membrane-bound LGI1” value with HA-ADAM22 amounted to 36%; in the assay with HA-ADAM23, 29%.

B3: LGI1-R474Q (Flag-tagged) (ligand, human, UniProt O95970 35-557, looked up)
chain: B1 chain with R440Q
notes: LGI1 with the ADLTE-causing substitution R474Q (c.1421G>A); secreted protein; also called c.1421G>A; source: COS7, co-transfected with HA-ADAM22 or HA-ADAM23 (immunofluorescence); HEK293T, co-transfected, in lysate (co-IP)
Turning to B3, the “percent of cells with membrane-bound LGI1” value with HA-ADAM22 came to 13%; with HA-ADAM23 it was 23%.

B4: LGI1-S473L (Flag-tagged) (ligand, human, UniProt O95970 35-557, looked up)
chain: B1 chain with S439L
notes: LGI1 with the ADLTE-causing substitution S473L (c.1418C>T); secreted protein; also called c.1418C>T; source: COS7, co-transfected with HA-ADAM22 or HA-ADAM23 (immunofluorescence); HEK293T, co-transfected, in lysate (co-IP)
For the molecule B4, the “percent of cells with membrane-bound LGI1” value in the assay with HA-ADAM22 is 3%; with HA-ADAM23, 16%.
